One data set deals with NIH3T3 cells. Nature of the data set: Peptide toxicity in the cell uptake experiments (Sytox). The data set is classed as cell-based. The following applies: Pep1 at 10 µM. Here is the method: Cell viability in the FACS experiment was determined by using Sytox fluorescence.
Cells were incubated for different times and then washed, collected and stained with SYTOX blue (1 mM, Invitrogen™) to identify the viable population and the green fluorescence of CFP9W5 was recordered to measure peptide uptake. Data were analysed with Kaluza Analysis Software (Beckman Coulter).

Data set [1] deals with T1, SHP2 PTP domain (SHP2 construct lacking the N-SH2 domain) (Homo sapiens, UniProt Q06124).
T1 construct: the isolated PTP domain preceded by the C-SH2 domain (residues 105-528); His6 (esaHis); made in house; host or cells: E. coli (DE3) Rosetta2
T1 sequence (Q06124 105-528): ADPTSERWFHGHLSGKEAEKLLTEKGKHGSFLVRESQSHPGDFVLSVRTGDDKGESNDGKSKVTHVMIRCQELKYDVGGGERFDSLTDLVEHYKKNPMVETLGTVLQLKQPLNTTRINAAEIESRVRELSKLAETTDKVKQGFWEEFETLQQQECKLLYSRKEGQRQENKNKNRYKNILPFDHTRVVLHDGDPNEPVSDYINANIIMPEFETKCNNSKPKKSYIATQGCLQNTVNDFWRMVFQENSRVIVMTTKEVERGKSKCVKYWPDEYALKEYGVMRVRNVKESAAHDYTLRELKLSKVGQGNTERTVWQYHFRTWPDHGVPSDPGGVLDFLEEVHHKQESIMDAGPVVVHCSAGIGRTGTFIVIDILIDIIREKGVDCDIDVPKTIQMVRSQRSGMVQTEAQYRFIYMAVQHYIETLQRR
Nature of the data set: Malachite green phosphatase assay, dephosphorylation of phosphopeptides. The format is biochemical. The note with it: phosphopeptide 100 µM; enzyme 95 nM. Here is the method: A SHP2 construct lacking the N-SH2 domain (i.e. the first 104 residues) was used at a 95 nM concentration. Phosphopeptides were added at a 100 µM concentration and the phosphate released was measured at different times. From the linear region of the phosphate versus time curve, the variation in absorbance at 655 nm in 1 min, due to phosphate released, was calculated and plotted.
The ability of SHP2 to dephosphorylate the phosphopeptides was evaluated through a malachite green phosphatase assay (PTP assay kit 1 Millipore, MA, USA). The BTAM peptide and the following monophosphorylated peptides derived from known SHP2 substrates were used for comparison: DKQVEpYLDLDL (SEQ ID NO:6) (GAB1Y657), EEENIpYSVPHD (SEQ ID NO:7) (p190A/RhoGAPY1105), and VDADEpYLIPQQ (SEQ ID NO:8) (EGFRY1016) (Primm) [Sun et al., 2009; Ren et al., 2011]. SHP2Δ104 or PTP (2.38 pmol) were incubated with 100 µM of each phosphopeptide (total volume 25 µl) for different times. The reaction was stopped by adding 100 µl of malachite green solution. After 15 min, absorbance was read at 655 nm using a microplate reader, and compared with a phosphate standard curve to determine the release of phosphate. Data obtained in the linear region of the curve were normalized on the reaction time (1 min).

The target of data set [2] is T2, N-SH2 domain of SHP2 (Homo sapiens, UniProt Q06124).
T2 construct: constructs of the N-SH2 (residues 2-111), C-SH2 (109-217) and PTP (212-528) domains; His6 (esaHis); made in house; host or cells: E. coli (DE3) Rosetta2
T2 sequence (Q06124 2-111): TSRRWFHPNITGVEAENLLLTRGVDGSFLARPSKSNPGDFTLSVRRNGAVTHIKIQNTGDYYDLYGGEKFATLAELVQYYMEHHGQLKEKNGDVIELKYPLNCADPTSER
The data set can be described thus: Fluorescence anisotropy displacement assay. The following applies: for effect of sequence length on the binding affinity: [CF-P9]=1.0 nM, [N-SH2]= 40 nM, relative to P9. The data set is classed as binding. (In fluorescence polarisation assays a small probe gives low polarisation when free and higher when bound to something large.)

For data set [3], the target named is T2, N-SH2 domain of SHP2. Nature of the data set: Fluorescence anisotropy direct binding assay, N-SH2 domain. The following applies: for standard free energy of binding: assuming a 1 M standard state.
Protocol: Anisotropy measurements were carried out using a Horiba Fluoromax 4 spectrofluorimeter.
For the binding assays, the requested peptide amount (1 nM or 0.1 nM) was diluted in buffer (HEPES 10 mM, NaCl 150 mM, EDTA 1 mM, TCEP 1 mM, fluorescence buffer henceforth) and its anisotropy signal was recorded. The peptide was then titrated with increasing protein amounts, until the anisotropy signal reached a plateau at its maximum value, or up to a protein concentration where protein aggregation and consequent light scattering affected the anisotropy values (usually above 1 µM). The measurements of CF-labeled peptides were carried out using an excitation wavelength of 470 nm and collecting the anisotropy values at an emission wavelength of 520 nm. A 495 nm emission filter was used. For the Cy3-labeled peptides, excitation and emission wavelengths of 520 and 560 nm were used.
The Kd values were obtained fitting the data with the following equation, described in Van der Weert 2011, which avoids the need for the commonly used (but often unjustified) approximation of the concentration of unbound protein with the total concentration:
Here, [P]T and [L]T are the total protein and ligand concentrations, while r, ro and rmax are the anisotropy values at a given protein concentration, in the absence of protein and when the peptide is completely bound, respectively.
The target of data set [4] is N-SH2 domain of SHP2 (residues 2-111), recombinant (human) (UniProt Q06124). Nature of the data set: fluorescence anisotropy direct binding, labelled peptide titrated with protein.
Data set [5] deals with C-SH2 domain of SHP2 (residues 109-217), recombinant (human) (UniProt Q06124). Described as above.
Data set [6] shares this target. Nature of the data set: fluorescence anisotropy direct binding.
The next data set deals with T3, P8 (LN-pY-IDLDL).
T3 sequence: LNYIDLDL

Data set [7] deals with T4, GAB1 Y657 phosphopeptide (DKQVEpYLDLDL).
T4 sequence: DKQVEYLDLDL

Data set [8] concerns T5, EGFR Y1016 phosphopeptide (VDADEpYLIPQQ).
T5 sequence: VDADEYLIPQQ

In another data set the test system is T6, P8W5 (LN-pY-IDLDW).
T6 sequence: LNYIDLDW

For data set [9], the system named is T7, p190A/RhoGAP Y1105 phosphopeptide (EEENIpYSVPHD).
T7 sequence: EEENIYSVPHD

For data set [10], the system named is T8, BTAM peptide (PTPNS1 bisphosphotyrosyl-containing motif, with 4 N-terminal G residues).
T8 sequence: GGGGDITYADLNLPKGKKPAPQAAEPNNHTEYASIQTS

In data set [11] the target is T9, N-SH2 domain of SHP1, GST fusion on the SH2 domain microarray (human, UniProt P29350 1-106).
T9 construct: domain: N-SH2 domain; Array of 97 human SH2 domains; not shown: GST fusion partner
T9 sequence (looked up): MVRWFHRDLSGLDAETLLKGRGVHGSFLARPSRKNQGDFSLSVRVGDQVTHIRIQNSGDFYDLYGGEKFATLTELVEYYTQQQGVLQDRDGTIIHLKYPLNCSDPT
The data set can be described thus: SH2 domain microarray (GST fusions on nitrocellulose slides), Cy3 fluorescence.

For data set [12], the target named is T10, N-SH2 domain of SHP2 (residues 2-111), recombinant (human, UniProt Q06124 2-111).
T10 construct: range 2-111; Expressed in E. coli from pET-26b and purified on Ni-NTA
T10 sequence (looked up): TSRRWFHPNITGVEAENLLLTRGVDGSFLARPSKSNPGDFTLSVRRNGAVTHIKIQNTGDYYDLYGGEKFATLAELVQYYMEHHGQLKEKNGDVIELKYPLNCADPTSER
The data set can be described thus: fluorescence anisotropy direct binding, labelled peptide titrated with protein.

Data set [13] concerns the target T10, N-SH2 domain of SHP2 (residues 2-111), …. The data set can be described thus: fluorescence anisotropy direct binding.
Protocol: For the binding assays, the requested peptide amount (1 nM or 0.1 nM) was diluted in buffer (HEPES 10 mM, NaCl 150 mM, EDTA 1 mM, TCEP 1 mM, fluorescence buffer henceforth) and its anisotropy signal was recorded. The peptide was then titrated with increasing protein amounts, until the anisotropy signal reached a plateau at its maximum value, or up to a protein concentration where protein aggregation and consequent light scattering affected the anisotropy values (usually above 1 µM). The measurements of CF-labeled peptides were carried out using an excitation wavelength of 470 nm and collecting the anisotropy values at an emission wavelength of 520 nm. […] For the Cy3-labeled peptides, excitation and emission wavelengths of 520 and 560 nm were used.

*1 amine or outer side, *2 acyl side, *3 side chain or, on linkers, in order; H or OH if unused. Where a SMILES comes first, the peptide text is derived from it. [ ]: non-standard residue; d: D form. 5,6‑carboxyfluorescein = CF, 5,6-carboxyfluorescein label; CF = 5,6-carboxyfluorescein, N-terminal label; pY = N[C@@H](Cc1ccc(OP(=O)(O)O)cc1)C(=O)O; Cysteamide = C(CS[*:3])N[*:1]

What is called IC50 is the concentration needed to halve the response being measured. Low readings indicate greater potency, high ones weaker potency. For orientation: Ki means the equilibrium dissociation constant of an inhibitor or competing ligand from its target. A lower Ki goes with a stronger hold on the target. For orientation: Kd means the concentration at which binding is half-saturated.

As to `CC(=O)N[C@@H](CCCCN)C(=O)N[C@@H](CCC(=O)O)C(=O)N[C@H](C(=O)N[C@@H](Cc1c[nH]c2ccccc12)C(=O)N[C@@H](Cc1c[nH]c2ccccc12)C(=O)N[C@@H](CCC(=O)O)C(=O)N[C@H](C(=O)N[C@@H](Cc1c[nH]c2ccccc12)C(=O)N[C@@H](Cc1c[nH]c2ccccc12)C(=O)N[C@H](C(=O)N[C@@H](CCC(=O)O)C(=O)N[C@@H](Cc1c[nH]c2ccccc12)C(=O)N[C@@H](CO)C(=O)N[C@@H](CCC(N)=O)C(=O)N1CCC[C@H]1C(=O)N[C@@H](CCCCN)C(=O)N[C@@H](CCCCN)C(=O)N[C@@H](CCCCN)C(=O)N[C@@H](CCCNC(=N)N)C(=O)N[C@@H](CCCCN)C(=O)N[C@H](C(=O)NCCS)C(C)C)[C@@H](C)O)[C@@H](C)O)[C@@H](C)O` [Pep1, reference compound] (Ac-KETWWETWWTEWSQPKKKRKV-Cysteamide), the toxicity result in the data set with NIH3T3 cells is reported as “negligible”.
Regarding `CC[C@H](C)[C@H](NC(=O)[C@H](Cc1ccc(OP(=O)(O)O)cc1)NC(=O)[C@H](CC(N)=O)NC(=O)[C@H](CC(C)C)NC(C)=O)C(=O)N[C@@H](CC(=O)O)C(=O)N[C@@H](CC(C)C)C(=O)N[C@@H](CC(=O)O)C(=O)N[C@@H](CC(C)C)C(N)=O` [Peptide P8, LN-pY-IDLDL] (Ac-LN[pY]IDLDL-NH2), in data set [1], the “dephosphorylation by SHP2” value is “dephosphorylation was indeed observed, although to a lower extent than for other phosphopeptides”. Besides, on N-SH2 domain of SHP2 [2], the IC50 was 47 ± 4 nM, the Ki turned out to be 25 ± 4 nM and the “effect of sequence length on the binding affinity” value is listed as “No significant loss in affinity”.
At N-SH2 domain of SHP2 [2], `CC[C@H](C)[C@H](NC(=O)[C@H](Cc1ccc(OP(=O)(O)O)cc1)NC(=O)[C@H](CC(N)=O)NC(=O)[C@H](CC(C)C)NC(C)=O)C(=O)N[C@@H](CC(=O)O)C(=O)N[C@@H](CC(C)C)C(=O)N[C@@H](CCC(=O)O)C(=O)N[C@@H](Cc1c[nH]c2ccccc12)C(N)=O` [Peptide P8E4W5, LN-pY-IDLEW] (Ac-LN[pY]IDLEW-NH2) registered an IC50 of 11 ± 1 nM and a Ki of 5 ± 2 nM.
In the same order, the values of `CC[C@H](C)[C@H](NC(=O)[C@H](Cc1ccc(OP(=O)(O)O)cc1)NC(=O)[C@H](CC(N)=O)NC(=O)[C@H](CC(C)C)NC(C)=O)C(=O)N[C@@H](CC(=O)O)C(=O)N[C@@H](CC(C)C)C(=O)N[C@@H](CC(=O)O)C(=O)N[C@@H](Cc1ccccc1)C(N)=O` [Peptide P8F5, LN-pY-IDLDF] (Ac-LN[pY]IDLDF-NH2) are 16 ± 1 nM and 9 ± 2 nM.
As for `CC[C@H](C)[C@H](NC(=O)[C@H](Cc1ccc(OP(=O)(O)O)cc1)NC(=O)[C@H](CC(N)=O)NC(=O)[C@H](CC(C)C)NC(C)=O)C(=O)N[C@@H](CC(=O)O)C(=O)N[C@@H](CC(C)C)C(=O)N[C@@H](CC(=O)O)C(=O)N[C@@H](Cc1c[nH]c2ccccc12)C(N)=O` [Peptide P8W5, LN-pY-IDLDW], the “dephosphorylation by SHP2” value in data set [1] was “dephosphorylation was indeed observed, although to a lower extent than for other phosphopeptides”.
In the case of “CF-GLN- Y-IDLDL ({5,6‑carboxyfluorescein}-GLNYIDLDL-NH2) [CF-P9Y0]”, the “standard free energy of binding” value in the data set with N-SH2 domain of SHP2 [3] was -7.07 ± 0.048 kcal/mol. The “affinity lower than phosphorylated peptide” value with N-SH2 domain of SHP2 [3] (unphosphorylated vs phosphorylated labeled peptide) is “approximately 100 times”.
As for “CF-GLN-pY-IDLDL ({5,6‑carboxyfluorescein}-GLN[pY]IDLDL-NH2) [CF-P9]”, the “standard free energy of binding” value with N-SH2 domain of SHP2 [3] was -9.94 ± 0.024 kcal/mol.
Regarding CF-P9E4W5 (CF-GLN-pY-IDLEW) (peptide), the Kd in data set [4] amounted to 8.2 nM.
As for CF-P9W5 (CF-GLN-pY-IDLDW) (peptide), the Kd came out at 4200 nM in [5] and 4.6 nM in data set [4]. Moreover, in data set [6], the fold lower affinity than for the N-SH2 domain turned out to be 1000 fold.
“N-pY-IDLDL (Ac-N[pY]IDLDL-NH2; SMILES CC[C@H](C)[C@H](NC(=O)[C@H](Cc1ccc(OP(=O)(O)O)cc1)NC(=O)[C@H](CC(N)=O)NC(C)=O)C(=O)N[C@@H](CC(=O)O)C(=O)N[C@@H](CC(C)C)C(=O)N[C@@H](CC(=O)O)C(=O)N[C@@H](CC(C)C)C(N)=O) [Peptide P7]”: the “effect of sequence length on the binding affinity” value in the data set with N-SH2 domain of SHP2 [2] is listed as “drastic perturbation of complex stability”.
Turning to “SHP2Δ104 (SHP2 construct lacking the N-SH2 domain, residues 105-528)”, the “dephosphorylation of the phosphopeptide (malachite green phosphate release)” value is recorded as “dephosphorylation was indeed observed, although to a lower extent than for other phosphopeptides” with P8 (LN-pY-IDLDL); “dephosphorylation was indeed observed, although to a lower extent than for other phosphopeptides” in data set [7]; “dephosphorylation was indeed observed, although to a lower extent than for other phosphopeptides” in data set [8]; “dephosphorylation was indeed observed, although to a lower extent than for other phosphopeptides” with P8W5 (LN-pY-IDLDW); “dephosphorylation was indeed observed, although to a lower extent than for other phosphopeptides” in [9]; “dephosphorylation was indeed observed, although to a lower extent than for other phosphopeptides” in data set [10].

B1: Cy3-P9W5 (Cy3-GLN-pY-IDLDW) (peptide)
peptide: XGLNYIDLDW
modifications: phosphotyrosine (pY) at position 4; N-terminal Cyanine 3 carboxylic acid (Cy3); C-terminal amide
B1: the Kd in data set [4] worked out at 23 nM. Moreover, the binding result in data set [11] is “no binding (tested: peptide at 0.5, 5.0 and 50 nM)”.
On to {CF}-GLN[pY]IDLDL-NH2 [CF-P9 (CF-GLN-pY-IDLDL), fluorescently labeled IRS-1 pY1172 peptide analog], for which, in [12], the Kd was 53 nM.
Take {CF}-GLNYIDLDL-NH2 [CF-P9Y0 (CF-GLN-Y-IDLDL), unphosphorylated analog of the labeled IRS-1 pY1172 peptide]: in [13], the “fold lower affinity than the phosphorylated peptide CF-P9” value is roughly 100 fold. Further, the Kd in data set [12] was determined as 6600 nM.
